Data on 1 molecule can be found in US7052908B2, “Androgen receptor coactivators” (University of Rochester, priority 1998, dated 2006).

In one assay the test system is mARt877s. Nature of the assay: AR transactivation, transient transfection CAT reporter assay, mutant AR. The settings on record: mARt877s, DHT 10^-11 to 10^-8 M. It is filed as cell-based, human. On the technique in general: Reporter assays use an easily measured gene product as a stand-in for the process of interest.
In assay [1] the target is T1, glucocorticoid receptor (GR) (Homo sapiens, UniProt P04150).
T1 construct: expressed in transfected cells; host or cells: DU145
T1 sequence (P04150 1-777): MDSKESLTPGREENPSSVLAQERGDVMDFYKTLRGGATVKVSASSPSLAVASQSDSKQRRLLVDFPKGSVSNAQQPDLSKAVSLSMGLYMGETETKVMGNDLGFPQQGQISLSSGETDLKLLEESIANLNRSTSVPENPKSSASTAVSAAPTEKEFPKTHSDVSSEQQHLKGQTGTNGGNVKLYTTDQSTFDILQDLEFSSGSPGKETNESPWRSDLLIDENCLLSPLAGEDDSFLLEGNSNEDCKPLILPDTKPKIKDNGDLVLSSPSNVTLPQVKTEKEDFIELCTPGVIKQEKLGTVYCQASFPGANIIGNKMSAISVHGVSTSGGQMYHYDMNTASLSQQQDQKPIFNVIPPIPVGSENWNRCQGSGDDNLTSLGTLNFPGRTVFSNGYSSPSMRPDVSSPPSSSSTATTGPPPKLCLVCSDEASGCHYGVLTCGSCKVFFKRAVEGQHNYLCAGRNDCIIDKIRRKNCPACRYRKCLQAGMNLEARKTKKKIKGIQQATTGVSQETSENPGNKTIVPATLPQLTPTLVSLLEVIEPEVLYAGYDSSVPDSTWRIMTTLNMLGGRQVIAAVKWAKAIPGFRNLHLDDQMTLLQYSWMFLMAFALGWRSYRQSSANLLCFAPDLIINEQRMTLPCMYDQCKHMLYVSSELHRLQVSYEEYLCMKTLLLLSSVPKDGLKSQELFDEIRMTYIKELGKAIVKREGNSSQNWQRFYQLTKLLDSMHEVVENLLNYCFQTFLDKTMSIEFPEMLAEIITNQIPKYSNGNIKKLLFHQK
Nature of the assay: Steroid receptor transactivation, MMTV-CAT reporter in DU145 cells. It is filed as cell-based. The settings on record: DU145, relative to AR.

In the next assay the target is T2, estrogen receptor (ER) (Homo sapiens, UniProt P03372).
T2 construct: expressed in transfected cells; host or cells: DU145
T2 sequence (P03372 1-595): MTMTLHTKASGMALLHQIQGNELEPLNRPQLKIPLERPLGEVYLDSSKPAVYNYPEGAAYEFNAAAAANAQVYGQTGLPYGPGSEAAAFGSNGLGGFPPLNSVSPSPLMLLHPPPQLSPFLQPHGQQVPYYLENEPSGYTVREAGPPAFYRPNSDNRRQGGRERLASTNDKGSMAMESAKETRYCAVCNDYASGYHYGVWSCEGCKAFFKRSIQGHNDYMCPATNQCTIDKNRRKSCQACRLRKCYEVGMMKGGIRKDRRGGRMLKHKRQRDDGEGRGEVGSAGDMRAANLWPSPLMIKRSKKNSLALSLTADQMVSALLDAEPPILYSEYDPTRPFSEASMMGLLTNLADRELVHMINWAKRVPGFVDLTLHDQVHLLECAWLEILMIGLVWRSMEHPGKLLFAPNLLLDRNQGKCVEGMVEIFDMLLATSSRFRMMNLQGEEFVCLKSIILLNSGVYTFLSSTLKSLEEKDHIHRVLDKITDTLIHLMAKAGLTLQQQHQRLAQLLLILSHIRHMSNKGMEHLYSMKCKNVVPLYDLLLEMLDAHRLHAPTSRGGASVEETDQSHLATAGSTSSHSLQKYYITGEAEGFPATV
Nature of the assay: Steroid receptor transactivation, ERE-CAT reporter in DU145 cells. It counts as cell-based. Conditions: DU145.

The target in a further assay is T3, wtAR (Homo sapiens, UniProt P10275).
T3 sequence (P10275 1-920): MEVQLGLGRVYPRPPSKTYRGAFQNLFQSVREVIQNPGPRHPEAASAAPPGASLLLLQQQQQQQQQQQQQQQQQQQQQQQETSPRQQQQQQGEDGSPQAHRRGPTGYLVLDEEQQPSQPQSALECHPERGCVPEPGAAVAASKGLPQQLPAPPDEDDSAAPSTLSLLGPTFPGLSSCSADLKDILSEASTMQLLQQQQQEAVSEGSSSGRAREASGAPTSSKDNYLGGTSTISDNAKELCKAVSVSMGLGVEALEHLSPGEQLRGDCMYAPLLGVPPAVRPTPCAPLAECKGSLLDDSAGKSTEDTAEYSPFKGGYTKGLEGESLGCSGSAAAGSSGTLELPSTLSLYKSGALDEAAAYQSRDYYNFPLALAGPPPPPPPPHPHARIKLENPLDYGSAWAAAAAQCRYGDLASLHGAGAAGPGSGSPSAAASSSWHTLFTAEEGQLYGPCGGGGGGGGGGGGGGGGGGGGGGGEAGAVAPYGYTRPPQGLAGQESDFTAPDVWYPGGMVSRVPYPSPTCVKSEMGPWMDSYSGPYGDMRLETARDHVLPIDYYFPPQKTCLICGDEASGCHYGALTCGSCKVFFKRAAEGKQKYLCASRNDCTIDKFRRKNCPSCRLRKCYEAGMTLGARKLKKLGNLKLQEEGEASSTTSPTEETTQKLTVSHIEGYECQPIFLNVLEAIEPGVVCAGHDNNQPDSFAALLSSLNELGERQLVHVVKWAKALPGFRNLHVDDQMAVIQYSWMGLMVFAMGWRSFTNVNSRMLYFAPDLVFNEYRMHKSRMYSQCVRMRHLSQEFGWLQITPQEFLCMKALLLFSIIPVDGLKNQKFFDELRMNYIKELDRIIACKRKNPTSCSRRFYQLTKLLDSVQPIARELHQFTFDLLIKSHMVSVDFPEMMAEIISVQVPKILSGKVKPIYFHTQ
Nature of the assay: AR transactivation, transient transfection with MMTV-CAT reporter in DU145 cells.

B1: ARA55: androgen receptor coactivator, 444 aa, SEQ ID NO:4, 91% homology with mouse hic5 (protein)
chain: MPRSGAPKERPAEPLTPPPSYGHQPTGQSGESSGASGDKDHLYSTVCKPRSPKPAAPAAPPFSSSSGVLGTGLCELDRLLQELNATQFNITDEIMSQFPSSKVASGEQKEDQSEDKKRPSLPSSPSPGLPKASATSATLELDRLMASLPDFRVQNHLPASGPTQPPVVSSTNEGSPSPPEPTAKGSLDTMLGLLQSDLSRRGVPTQAKGLCGSCNKPIAGQVVTALGRAWHPEHFVCGGCSTALGGSSFFEKDGAPFCPECYFERFSPRCGFCNQPIRHKMVTALGTHWHPEHFCCVSCGEPFGDEGFHEREGRPYCRRDFLQLFAPRCQGCQGPILDNYISALSLLWHPDCFVCRECFAPFSGGSFFEHEGRPLCENHFHARRGSLCPTCGLPVTGRCVSALGRRFHPDHFACTFCLRPLTKGSFQERAGKPYCQPCFLKLFG
modifications: Homo sapien
As for B1, the “enhancement of transactivation by ARA55” value is 4–8 fold with mARt877s and 4–8 fold in the assay with wtAR (wtAR, DHT 10^-11 to 10^-8 M). The “enhancement of GR transcriptional activation by ARA55” value in assay [1] is listed as “to a lesser degree”. Also, the “effect of ARA55 on ER transcriptional activation” value with estrogen receptor (ER) is given as “marginal effect”. Moreover, the “AR transcriptional activity induction with ARA55 cotransfected” value with wtAR (10 nM DHT plus ARA55, DU145) is 22.8 fold. Also, the “further increase of the DHT induction of AR transcriptional activity by ARA55” value with wtAR (10 nM DHT, dose-dependent, plateau at AR:ARA55 1:4.5, DU145) came to 5.3 fold.
